# Assay results taken from PMC4831024 (Nature Communications, 2016).
# B1: Strep-tagged WRN^W18G (natural protein)
# chain: not shown
# notes: Werner syndrome protein (WRN), human, full length, W18G; source: insect cells, baculovirus expression system, purified (Strep-Tactin Superflow Plus cartridge, Superose 6 gel filtration)
# Target: T1, Ku heterodimer (Ku70/Ku80), full length, recombinant human (human, UniProt P12956 1-609; P13010 1-732)
# T1 construct: Ku70, human; Ku80, human; also called recombinant Ku; full-length Ku heterodimer; source: insect cells, baculovirus expression system, purified (immobilized metal-chelate chromatography, gel filtration)
# T1 sequence (P12956 whole entry, chain 1 of 2): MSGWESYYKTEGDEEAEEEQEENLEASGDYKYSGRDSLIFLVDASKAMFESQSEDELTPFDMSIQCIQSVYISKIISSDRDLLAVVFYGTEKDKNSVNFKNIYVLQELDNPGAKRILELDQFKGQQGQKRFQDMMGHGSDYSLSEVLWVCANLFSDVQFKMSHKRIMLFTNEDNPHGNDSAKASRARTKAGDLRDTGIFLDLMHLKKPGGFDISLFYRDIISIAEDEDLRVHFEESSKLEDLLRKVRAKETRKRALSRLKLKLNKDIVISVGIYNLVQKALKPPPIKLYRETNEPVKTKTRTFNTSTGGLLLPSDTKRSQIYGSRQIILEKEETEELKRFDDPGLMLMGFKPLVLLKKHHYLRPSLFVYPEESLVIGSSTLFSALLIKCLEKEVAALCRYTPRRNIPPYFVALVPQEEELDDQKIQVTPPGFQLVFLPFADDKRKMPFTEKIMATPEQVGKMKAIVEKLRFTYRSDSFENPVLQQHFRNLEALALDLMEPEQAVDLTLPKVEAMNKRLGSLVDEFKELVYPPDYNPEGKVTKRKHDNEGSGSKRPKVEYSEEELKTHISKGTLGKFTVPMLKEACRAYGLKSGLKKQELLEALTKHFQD
# T1 sequence (P13010 whole entry, chain 2 of 2): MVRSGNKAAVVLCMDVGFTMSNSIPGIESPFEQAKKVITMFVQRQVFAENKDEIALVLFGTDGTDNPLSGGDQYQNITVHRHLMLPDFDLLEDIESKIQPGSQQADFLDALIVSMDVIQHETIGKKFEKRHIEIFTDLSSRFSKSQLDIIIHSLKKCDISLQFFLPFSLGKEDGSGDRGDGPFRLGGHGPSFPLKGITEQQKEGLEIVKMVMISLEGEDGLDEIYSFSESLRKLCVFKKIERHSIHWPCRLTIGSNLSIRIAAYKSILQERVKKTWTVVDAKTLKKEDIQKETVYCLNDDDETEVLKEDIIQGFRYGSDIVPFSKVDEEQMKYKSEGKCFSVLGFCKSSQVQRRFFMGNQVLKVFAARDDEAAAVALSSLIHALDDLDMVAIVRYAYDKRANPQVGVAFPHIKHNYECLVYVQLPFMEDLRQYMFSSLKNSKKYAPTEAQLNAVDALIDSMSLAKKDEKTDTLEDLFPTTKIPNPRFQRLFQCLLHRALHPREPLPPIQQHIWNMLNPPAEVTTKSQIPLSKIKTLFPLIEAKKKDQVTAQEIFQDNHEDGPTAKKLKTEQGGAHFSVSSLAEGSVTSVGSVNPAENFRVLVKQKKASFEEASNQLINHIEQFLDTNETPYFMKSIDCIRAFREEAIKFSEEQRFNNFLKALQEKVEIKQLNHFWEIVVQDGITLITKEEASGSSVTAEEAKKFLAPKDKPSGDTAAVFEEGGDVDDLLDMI
# Test: pull-down; 50 nM Strep-tagged WRN protein immobilised on Streptavidin Mag Sepharose beads, 50 nM recombinant untagged Ku, 1 h at 4 °C; 20 mM Hepes pH 7.5, 150 mM NaCl, 5% glycerol, 0.5 mM TCEP, 0.05% IGEPAL-CA640; SDS–PAGE, Coomassie/Instant Blue
# Settings: both partners purified
binder,measurement,value
B1,binding result,binds
